B1: ADVa012 (ssDNA)
DNA: AGCAGCACAGAGGTCAGATGAGCTAGTGCCTATGCGTGCTACCGTGAATAGCGTCAGCAGCCTATGCGTGCTACCGTGAA
B2: ADVa014 (ssDNA)
DNA: AGCAGCACAGAGGTCAGATGTGTTGTCCCGGGGCCCTATGCGTGCTACCGTGAATAGCGTCCTATGCGTGCTACCGTGAA
B3: ADVa001 (ssDNA)
DNA: AGCAGCACAGAGGTCAGATGGTGTGTGTGTGTGTGTGTGTGCCTATGCGTGCTACCGTGACCTATGCGTGCTACCGTGAA
B4: ADVa011 (ssDNA)
DNA: AGCAGCACAGAGGTCAGATGGGGTTGTCGGTGTTTGCGGGCCTATGCGTGCTACCGTGAACCTATGCGTGCTACCGTGAA

molecular target: AMDV VP2 (Aleutian mink disease virus, UniProt A0A168PAM8 200-588); assay: ELONA; conditions: protein: recombinant; tags: His

Point of comparison: B4, Kd 2090 ± 754 nM. Against it:
- B1 — 2.2-fold lower, 930 ± 285 nM
- B2 — 8.5-fold lower, 247 ± 62.5 nM
- B3 — 3.7-fold lower, 566 ± 127 nM

Reference: publication PMC7907208, “Aptamer-targeting of Aleutian mink disease virus (AMDV) can be an effective strategy to inhibit virus replication”
